Experimental data: paper doi:10.1101/749176, “ZapA tetramerization is required for midcell localization and ZapB interaction in Escherichia coli” (bioRxiv, 2019)

T1: mKO-PBP1a (Escherichia coli, UniProt P02918 1-850)
T1 construct: PBP1a, inner membrane (IM) protein, Escherichia coli; Negative control partner of the FRET assay; source: E. coli TB28 ΔzapA, expressed from plasmid, in living cells
T1 sequence (looked up): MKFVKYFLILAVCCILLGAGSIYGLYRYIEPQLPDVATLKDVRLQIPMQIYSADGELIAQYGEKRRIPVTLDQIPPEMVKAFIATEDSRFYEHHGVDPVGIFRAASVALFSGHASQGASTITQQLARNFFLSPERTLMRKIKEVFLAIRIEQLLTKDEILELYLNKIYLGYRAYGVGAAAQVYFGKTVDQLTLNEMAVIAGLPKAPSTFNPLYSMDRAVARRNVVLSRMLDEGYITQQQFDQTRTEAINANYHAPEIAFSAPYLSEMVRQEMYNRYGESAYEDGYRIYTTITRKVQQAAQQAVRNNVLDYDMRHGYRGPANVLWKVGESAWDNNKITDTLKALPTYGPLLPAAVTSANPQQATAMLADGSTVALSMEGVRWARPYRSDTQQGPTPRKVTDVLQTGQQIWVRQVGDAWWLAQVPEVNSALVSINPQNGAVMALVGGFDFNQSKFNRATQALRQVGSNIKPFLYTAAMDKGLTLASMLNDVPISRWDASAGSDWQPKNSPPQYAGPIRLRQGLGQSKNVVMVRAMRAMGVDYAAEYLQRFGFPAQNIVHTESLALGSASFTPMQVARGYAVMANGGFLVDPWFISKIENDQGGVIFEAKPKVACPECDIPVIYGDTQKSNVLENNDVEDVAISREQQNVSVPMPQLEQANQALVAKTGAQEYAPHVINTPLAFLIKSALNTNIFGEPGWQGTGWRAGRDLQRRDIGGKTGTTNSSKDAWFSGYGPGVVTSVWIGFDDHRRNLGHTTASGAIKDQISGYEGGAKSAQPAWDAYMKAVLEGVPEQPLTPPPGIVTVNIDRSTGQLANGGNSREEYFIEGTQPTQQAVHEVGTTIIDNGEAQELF

T2: mKO-FtsZ (Escherichia coli, UniProt P0A9A6 1-383)
T2 construct: FtsZ, Escherichia coli; also called Filamenting temperature sensitive Z; source: E. coli TB28 ΔzapA or WT strain, expressed from plasmid, in living cells
T2 sequence (looked up): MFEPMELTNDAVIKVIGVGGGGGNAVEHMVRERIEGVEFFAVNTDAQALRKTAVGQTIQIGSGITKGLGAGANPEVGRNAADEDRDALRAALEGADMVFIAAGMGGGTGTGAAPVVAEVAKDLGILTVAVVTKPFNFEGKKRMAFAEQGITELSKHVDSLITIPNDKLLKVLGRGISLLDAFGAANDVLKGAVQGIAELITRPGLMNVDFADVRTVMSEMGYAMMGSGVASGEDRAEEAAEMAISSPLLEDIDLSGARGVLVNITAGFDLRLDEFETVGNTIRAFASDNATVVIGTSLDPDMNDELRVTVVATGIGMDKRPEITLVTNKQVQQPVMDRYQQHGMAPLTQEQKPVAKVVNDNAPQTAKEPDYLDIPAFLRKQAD


Legend:
mKO-PBP1a = molecular target: T1, mKO-PBP1a; assay: FRET or BRET; in vivo FRET in E. coli TB28 ΔzapA cells, mKO donor and mCh acceptor fusions expressed from plasmids; energy transfer efficiency (EfA) from unmixed emission spectra; conditions: partners not purified
mKO-FtsZ = molecular target: T2, mKO-FtsZ; assay: as above; conditions: partners not purified

Binder | energy transfer efficiency (EfA) (mKO-PBP1a) | energy transfer efficiency (EfA) (mKO-FtsZ)
mCh-PBP1b (natural protein, Escherichia coli, UniProt P02919 1-844, looked up, PBP1b, Escherichia coli; Negative control of the FRET assay; source: E. coli TB28 ΔzapA, expressed from plasmid, in living cells) MAGNDREPIGRKGKPTRPVKQKVSRRRYEDDDDYDDYDDYEDEEPMPRKGKGKGKGRKPRGKRGWLWLLLKLAIVFAVLIAIYGVYLDQKIRSRIDGKVWQLPAAVYGRMVNLEPDMTISKNEMVKLLEATQYRQVSKMTRPGEFTVQANSIEMIRRPFDFPDSKEGQVRARLTFDGDHLATIVNMENNRQFGFFRLDPRLITMISSPNGEQRLFVPRSGFPDLLVDTLLATEDRHFYEHDGISLYSIGRAVLANLTAGRTVQGASTLTQQLVKNLFLSSERSYWRKANEAYMALIMDARYSKDRILELYMNEVYLGQSGDNEIRGFPLASLYYFGRPVEELSLDQQALLVGMVKGASIYNPWRNPKLALERRNLVLRLLQQQQIIDQELYDMLSARPLGVQPRGGVISPQPAFMQLVRQELQAKLGDKVKDLSGVKIFTTFDSVAQDAAEKAAVEGIPALKKQRKLSDLETAIVVVDRFSGEVRAMVGGSEPQFAGYNRAMQARRSIGSLAKPATYLTALSQPKIYRLNTWIADAPIALRQPNGQVWSPQNDDRRYSESGRVMLVDALTRSMNVPTVNLGMALGLPAVTETWIKLGVPKDQLHPVPAMLLGALNLTPIEVAQAFQTIASGGNRAPLSALRSVIAEDGKVLYQSFPQAERAVPAQAAYLTLWTMQQVVQRGTGRQLGAKYPNLHLAGKTGTTNNNVDTWFAGIDGSTVTITWVGRDNNQPTKLYGASGAMSIYQRYLANQTPTPLNLVPPEDIADMGVDYDGNFVCSGGMRILPVWTSDPQSLCQQSEMQQQPSGNPFDQSSQPQQQPQQQPAQQEQKDSDGVAGWIKDMFGSN | < 1.7% | 
mCh-ZapA (wild type ZapA fused to mCh) (natural protein, Escherichia coli, UniProt P0ADS2 1-109, looked up, ZapA (Z associated protein A), Escherichia coli; zapA in plasmid pSAV077; also called mCh-ZapA^WT; ZapA^WT; source: E. coli TB28 ΔzapA or WT strain, expressed from plasmid, in living cells) MSAQPVDIQIFGRSLRVNCPPDQRDALNQAADDLNQRLQDLKERTRVTNTEQLVFIAALNISYELAQEKAKTRDYAASMEQRIRMLQQTIEQALLEQGRITEKTNQNFE | < 1.7% | 4%
mCh-ZapA^I83E (dimeric ZapA mutant fused to mCh) (natural protein, Escherichia coli, UniProt P0ADS2 1-109, looked up, ZapA (Z associated protein A), Escherichia coli, with I83E; zapA of pSAV077 exchanged for zapA^I83E from pRP071; source: E. coli TB28 ΔzapA or WT strain, expressed from plasmid pNM137, in living cells) MSAQPVDIQIFGRSLRVNCPPDQRDALNQAADDLNQRLQDLKERTRVTNTEQLVFIAALNISYELAQEKAKTRDYAASMEQRERMLQQTIEQALLEQGRITEKTNQNFE | < 1.7% | 
